Assay: label from the status in PepcDB records

| Sequence | protein production |
| --- | --- |
| MYTIYVPGLRDPDLCNHSLMAEILCIYSSNAFEKIRKYDNLFTYVDYGNLKESELYKKRNEEESSFLYKKRILSNNIQDKKLKFDIKKEQFNYGALLFFSLNDGEFLNYISENICGNSVEVLASNNSMTTLVCGDDKGFIRILRNNPKYDDFEIKNTQMIRDVDKECCTKLFNNKIIKIDERRRNSYQTKRKKSIDKQQDLLKKAKMENFSDH | failed |
| SASLPIRHLTPRDLTACADLSEDRGWPREEHKWGLLLAAGKGYGIDDPEGGLVSACVVTEYGPQDRPDLGAIGMVLVAERHARQGIGRRLMRHVMAEMATTPLTLCATPFGRPLYEELGFKVVGHSEMVRGYFAP | failed |
| MGTRGNEEEEDWFSDAREEVSSVSDCNSEVADDFVQATGDLDLWTMNPESVTNRRQKFFQSMGFSFKKRDFDLDLDLLGDSSSDHIPVSKQLTSVSETDHEEEEKEEKLLRNESTSSGSSVSSFSTASLAEAFSFRGSFQNRAKNIDDQILLTRDYSSNSSSIAEGLSESDSSRFDSYGDLPNSPMSRYEESPKKGAKGWLKKLGVLTHVLDKTEECTDGESTRSSIRRQLTRVQSFKKQFKELSSLCVGQEFSAHDGSIVVMKFSHDGKYLASAGEDCVVRVWNIIEDERRDNEFEVAESDSSCVYFGMNDKSQIEPLKTENEKIEKSRGLLRKKSESTCAVLPSKVFSISETPQHEFRGHTGEILDLSWSEKGFLLSSSVDETVRLWRVGSSDECIRVFSHKSFVTCVAFNPVDDNYFISGSIDGKVRIWDVSQFRVVDYTDIRQIVTALCYRPDGKGAVVGSMTGECRFYHTTDNQLQLDRDISLHGKKKVPNKRITGFQFFPGDSDKVMVTSADSQIRIICGVDTICKLKKASSLRTTLMSPTFASFTSDGKHIVSTIEESGIHVWDFSQPNKKASSQKPKTIRSYEGFLSRNVSVAIPWLGQGKEDSIIADLEKSFAHFPVPLDYFSPMKGATTWPEEKLGVVAGTAAAAVSATVSSRSKLRLLKSVCQNVHGSTPHLWGLVIVTATWDGSIRVFHNYGLPIRV | failed |
| NVGVFVLMHGDSTASSMLKTAQELLGTSIGTAMNMPLTMEVQTMYEQLRNQVITQKESLNNGILLLTDMGSLNSFGNMLFEETGIRTKAITMTSTMIVLEAIRMASVGRSLEDIYQNIQLSFESVVREQFRSSLQK | not failed |
| DLAPSRVESLTLIMTSSGAQGLPMPNAALLQLLARRGAPDREVALEQQADLLAALGSPQVKDDREQLLHQAAVSYDRAFNPEGVKRQIMAILAEPSRVELLNRLRLPVLVVHGTADPLLPVMHGVHVAAHIQGSQLRLIPGLAHRFQEAFKAPLLGAVLPYLKA | failed |
| MHTLVFLSTRQVLQCQPAACQALPLLPRELFPLLFKVAFMDKKTVVLRELVHTWPFPLLSFQQLLQECAHCSRALLQERPSTESMQAVILGLTARLHTSEPGASTQPLCRKHALRVLDMTGLLDDGVEQDPGTMSMWDCTAAVARTCIAQQQGGAAEPGPAPIPVEVRVDLRVNRASYAFLREALRSSVGSPLRLCCRDLRAEDLPMRNTVALLQLLDAGCLRRVDLRFNNLGLRGLSVIIPHVARFQHLASLRLHYVHGDSRQPSVDGEDNFRYFLAQMGRFTCLRELSMGSSLLSGRLDQLLSTLQSPLESLELAFCALLPEDLRFLARSPHAAHLKKLDLSGNDLSGSQLAPFQGLLQASAATLLHLELTECQLADTQLLATLPILTQCASLRYLGLYGNPLSMAGLKELLRDSVAQAELRTVVHPFPVDCYEGLPWPPPASVLLEASINEEKFARVEAELHQLLLASGRAHVLWTTDIYGRLAADYFSL | failed |
| MIMANWQSIDELQDIASDLPRFTHALDELSRRLGLDITPLTADHISLRCHQNVTAERWRRGFEQCGELLSENMINGRPICLFKLHEPVQVAHWQFSIVELPWPGEKRYPHEGWEHIEIVLPGDPETLNARALALLSDEGLSLPGISVKTSSPKGEHERLPNPTLAVTDGKTTIKFHPWSIEEIVASEQSA | not failed |
| MTRKQMKTLVNRLFIISTFLLTSVQSYANFIDISEQQINQYLATKLTEKFRMQDQIGIPGLFQLNYHLHNLTTQIGRTDANKVSLSGIIDGVLLLKGKSYDAQLNLNIDTTPYYDTKTGKLYLKDIRLLNYSASPEKYQDKLQAFLPLLVDGLSKMLNNTPIYTLDENKTQEALLKKFGKAIVIEQGKLSLQTALF | failed |
| GTIGPVADAEPHAAALGEAFQLTNFLRDVGEDLDRGRVYLPADELAAFGVDTELLAHSRRSGTTDQRIVRALAHLISVTRSVYRDAEPGIAMLDRRVQPGIRTAFVLYSRILDEIERGGYRVLDRRATVSRRNRWATALPQFARLAV | failed |

From a protein production outcome set (Wang et al. 2014)
